The values below come from PMC6838084.

The target in experiment [1] is soluble C-terminal deletion mutant of human α2δ-1 with an N-terminal double strep II-tag (α2δ-1S NTST) (human). Description: ELISA; ELISA-style titration; α2δ-1S NTST (20 µg/ml) coated; TSP-4 11-1,505 nM; TBS pH 7.4 without Ca2+; RT; apparent KD. For orientation: ELISA stands for enzyme-linked immunosorbent assay.
Experiment [2] has the same target. Description: ELISA; ELISA-style titration; α2δ-1S NTST (20 µg/ml) coated; TSP-4 11-1,505 nM; TBS pH 7.4 + 1 mM Ca2+; RT; apparent KD.
For experiment [3], the target named is α2 peptide chain of human α2δ-1 with an N-terminal double strep II-tag (α2 NTST) (human). Description: ELISA; ELISA-style ligand binding assay; α2δ-1S NTST (20 or 10 µg/ml) or α2 NTST (10 µg/ml) coated on 96-well plates; soluble TSP at a single concentration of 1,000 nM; TBS pH 7.4 with 1 mM Ca2+; 2 h at RT; detection with TSP-specific antibody/antiserum (Fig. 3A, 3C).

thrombospondin-4 (TSP-4), recombinant full-length rat, N-terminal double strep II-tag, sequence (P49744 43-980): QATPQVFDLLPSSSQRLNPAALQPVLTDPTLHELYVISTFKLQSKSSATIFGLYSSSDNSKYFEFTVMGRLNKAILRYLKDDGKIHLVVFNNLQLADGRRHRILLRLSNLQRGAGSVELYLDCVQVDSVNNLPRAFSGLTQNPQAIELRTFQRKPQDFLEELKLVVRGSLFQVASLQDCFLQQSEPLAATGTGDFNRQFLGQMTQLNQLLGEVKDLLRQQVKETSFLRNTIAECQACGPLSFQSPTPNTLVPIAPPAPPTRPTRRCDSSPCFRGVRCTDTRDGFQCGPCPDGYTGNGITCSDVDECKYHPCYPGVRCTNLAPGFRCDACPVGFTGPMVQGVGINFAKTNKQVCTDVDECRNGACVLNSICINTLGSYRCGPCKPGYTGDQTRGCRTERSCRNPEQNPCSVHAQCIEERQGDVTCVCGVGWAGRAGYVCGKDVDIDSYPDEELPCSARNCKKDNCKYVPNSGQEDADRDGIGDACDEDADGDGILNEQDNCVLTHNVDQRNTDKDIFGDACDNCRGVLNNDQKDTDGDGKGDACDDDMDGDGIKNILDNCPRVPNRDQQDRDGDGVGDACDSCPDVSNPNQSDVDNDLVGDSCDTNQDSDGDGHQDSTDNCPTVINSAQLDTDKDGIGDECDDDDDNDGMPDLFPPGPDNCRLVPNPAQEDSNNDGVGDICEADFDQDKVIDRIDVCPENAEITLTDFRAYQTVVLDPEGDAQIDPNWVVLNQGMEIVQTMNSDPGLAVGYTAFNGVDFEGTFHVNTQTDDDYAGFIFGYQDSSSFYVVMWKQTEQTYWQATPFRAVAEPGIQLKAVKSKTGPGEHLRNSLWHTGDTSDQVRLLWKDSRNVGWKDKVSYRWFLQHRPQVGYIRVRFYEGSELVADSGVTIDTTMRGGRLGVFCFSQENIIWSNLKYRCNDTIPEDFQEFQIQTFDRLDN

For “thrombospondin-4 (TSP-4), recombinant full-length rat, N-terminal double strep II-tag (from UniProt P49744 43-980) (natural protein)”, the values for the Kd in experiment [1] and in experiment [2] were 198 nM and 153 nM, respectively. In experiment [3], this substance displayed a fold change of the binding signal against α2δ-1S NTST of 2 fold.
